This data set is described as follows: yeast display, Sf9 membrane polyspecificity reagent, FACS + sequencing; frameworks hold sequencing errors. The procedure, abridged: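 A nanobody's polyreactivity label depends on the gate it was sorted from. Yeast display cells were stained with 10% biotinylated, detergent-solubilized Sf9 membrane reagent for 1 hour at 4 °C, enriched on streptavidin microbeads and sorted by FACS. The low and high (top ~1%) gates were set on anti-HA fluorescence for expression and streptavidin fluorescence for reagent binding.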
Turning to “QVPLVESGGGLVQAGGSLRISCAACGIIFFPYAMGWYRQAPGKEREFVAAITSRGGSTYYADSVKGRFTISRDNAKNTVYLQMNSLKPEDTAVYFCAADHLGRARGPWRYNYWGQGTQVTVSS”, the “polyreactivity (PSR sort gate)” value is “low polyreactivity”.

Consider “QVPLVESGGGLVQAGGSLRLMCAASGRIFALYAMGWYRQAPGKERELVAAISWSAGRTYYADSVKGRFTISRDNAKNTVYLQMNSLKPEDTAVYYCAADTGRQYDYWGQGTQVTVSS”, for which the “polyreactivity (PSR sort gate)” value is recorded as “high polyreactivity”.

For “QVPLVESGGGLVQAGGSLRLSCAASGRISGYYDMGWYRQAPGKERELVATITSDGGTNYADSVKGRFTISRDNAKNTVYLQMNSLKPEDTAVYYCAAYGWYTKWHFAFGYWGQGTQVTVSS”, the “polyreactivity (PSR sort gate)” value is given as “low polyreactivity”.

As for “QVPLVESGGGLVQAGGSLRLSCAASGSIFYTNAMGWSIPAPGKERELVARLSSSSGRTYYADSVKGRFPISRDNAKNTVYLKMKSLIPDYTAVYYCAARYLLRRHTNMDYWGHGTQVTVSS”, the “polyreactivity (PSR sort gate)” value is reported as “high polyreactivity”.

“QVPLVESGGGLVQAGGSLRLSCAASGSTLYGYAMGWSSQAPGKERELVAAISYSGGRTFYADSVKGRFTISRDNAKNTVYLQMNSLKPADSAVYYCAAEYTVYVTDWYDYYDWGQGTQVTVAS”: the “polyreactivity (PSR sort gate)” value is “low polyreactivity”.

Regarding “QVPLVESGGGLVQAGGSLRLSCAPSGSTYYFYTMGWYIQAPGKERELVAAIRDSGSSTYYADSVKGRFTISRDNAKNTVYLQMNSLKPEDTAVYYCATGVDTYSLTVEHDSWGQGTQVTVSS”, the “polyreactivity (PSR sort gate)” value is on record as “low polyreactivity”.

In the case of “QVPLVESGGGLVQGGGSLRLSCAASGSIFRGNAMGWYRQAPGKERELVAAISKSGGSTYYADSVKGRFTISRDNAKNTVYLHMNSLKPEDTAVYYCAARTTYLYGRYYWGQGTQVTVSS”, the “polyreactivity (PSR sort gate)” value is on record as “low polyreactivity”.

As for “QVPLVESGGGVVQAGGSLRLSCAASGSIFNVNAMGWYRPAPGKERELVAAISSGGDTYYADSLKGRFTISRDNAKNTVYLQMNSLKPEDTAVYYCAAEIYTAYYEFDYWGQGTQVTVSS”, the “polyreactivity (PSR sort gate)” value is recorded as “low polyreactivity”.

In the case of “QVPLVESGGVLVQAGGSLRLSFAASGRIYENAMGWYRQAPVNERELVAVISWSGGSKSYADSVKRRLTISRDNAMNTVYFQMNRLKPEDTAVYYCNAYRLLSRRYYYLGQGTQVTVSS”, the “polyreactivity (PSR sort gate)” value is given as “low polyreactivity”.

“QVPLVESGVGLVQAGGSLRLSCAASGSIFSYYAMGWYRQATGKERELVAAITVRGGSTYYADSVKGRFSISRDNAKNTVYLQMYSLIPEDTAVYYCAAVWLDESFSYGPYYYWGQGTQVTVSS”: the “polyreactivity (PSR sort gate)” value is recorded as “low polyreactivity”.

Turning to “QVPLVESGVGLVQAGGSLRLSCAASGSTISYYYMGWYRQAPGKEREFVAAIRRRGSSTYYADSVKGRFTISRDNAKNTVYLQINSLKPEDTAVYYCAKRTIAGRGRQYDYWGQGTQVSVSS”, the “polyreactivity (PSR sort gate)” value was “high polyreactivity”.

With “QVQFVESGGALVQAGGSLRLSCAASGSTFQGYAMGWYRQAPGKETELVAAISRSGGRTYYADSVTGRFTISRDNAKNTVYLQMISLKPEDTAVYYCAAEGHELTDGDSWGQGTQVTVSS”, the “polyreactivity (PSR sort gate)” value was “low polyreactivity”.

Take “QVQFVESGGGLVQAGGSLRLSCAASGFTFVWYDMGGYRQAPGKERELVAAISSGGSTYYADSVKGRFTISRDNAKNTVYLQMNSLKPEDTAVYYCAVYTGYYNYIYQYDYWGQGTQVTVSS”: the “polyreactivity (PSR sort gate)” value is on record as “low polyreactivity”.

Turning to “QVQFVESGGGLVQAGGSLRLSCAASGFTFVWYDMGWYRQAPGKERELVAAISSGGSTYYADSVKGRFTISRDNAKNTVYLQMNSLKPEDTAVYYCAVYTGYYNYIYQYDYWGQGTQVTVSS”, the “polyreactivity (PSR sort gate)” value is given as “low polyreactivity”.

With “QVQGVESGGGLVQAGGSLRLSCAASGLTFKENVMGWYRKAPGKERELVAAISTGASTYYADSVKGRFTISRDNANNTVYLQMNSLKPEDTAVYYCAAERWAQGYTYEYWGQGTQVTVSS”, the “polyreactivity (PSR sort gate)” value is reported as “high polyreactivity”.

With “QVQHEESGGGLVQAGGSLRLSCAASGRIFFGKVMGGYRQAPGTERELVAVITSGGNTNYADSVKGRFTISRDNAKNTVYLQMHSLKPEDTAVYYCATAVVAGVWGYDYWGQGTQVTVSS”, the “polyreactivity (PSR sort gate)” value is listed as “low polyreactivity”.

Take “QVQHEESGGGLVQAGGSLRLSCAASGRIFGTDAMGWFRQAPGKDRELVAAIRSSGDSTYYADSVKGRFTISRDNAKNTVYLQMNSLKPEDTAVYYCARTLRYYRPVLLVYRFGYWGQGTQVTVSS”: the “polyreactivity (PSR sort gate)” value is “high polyreactivity”.

As for “QVQHEESGGGLVQAGGSLRLSCAASGRIFHFNTMGWYRQAPGKERELVAAITSSGGSTNYADSVKGRFTISRDNAKNTVYLQMNSLKPEDTAVYYCNADTGAADYFDFDYWGQGTQVTVSS”, the “polyreactivity (PSR sort gate)” value is reported as “low polyreactivity”.

On to “QVQHEESRGGLVQAGGSLRLSCAASVRTFSVNAMGRYRQAPGKEREFVAVISSNGGSTYYADSVKGRFTISLDNAKNTVYLQMNSLKPEDTAVYYCNARYWRGWGGRVSKYGYWGHGTQVTVSS”, for which the “polyreactivity (PSR sort gate)” value is given as “high polyreactivity”.

Regarding “QVQHVDSGGGLVQEGGSLRLSCAASGRIFTYNAMGWYRQAPGKERELVAAISRRGGTTYYADSVKGRFTISRDNAKNTVYLQMNSLKPEDTAVYYCAAVVYTRGVTSRPVSRYDYWGQGTQVTVSS”, the “polyreactivity (PSR sort gate)” value is recorded as “high polyreactivity”.

As to “QVQHVESAGGLVQAGGSLRLSCPASGRTINRNAMGWYRQAPGKERELVAAISWSGGRTYYADSVKGRFTISRDTAKNTVYLQMTSLKPEDTAVFSCAAPGNKYWGQGTQVTVSS”, the “polyreactivity (PSR sort gate)” value is reported as “high polyreactivity”.

“QVQHVESAGRLVQAGGSLRLSCAASGRILVYYALGWYRQPPGKEREFVAAISQRGGSTYYADSVKGRFTISRDNAKNTVYLQMNSLKPDDTEVYYCATRPIQYRRGYDYWGQGTQVTVSS”: the “polyreactivity (PSR sort gate)” value is given as “high polyreactivity”.

“QVQHVESGAGLVQAGGSLRLSCAASGLILVYYAMGWYRQAPGKEREFVAAITPGGSTKYADSVKGRFTISRDNAKNTVYLQMNSLKPEDTAVYYCNALSGPYWYSVYQYHQDDYWGQGTQVTVSS”: the “polyreactivity (PSR sort gate)” value is given as “low polyreactivity”.

Consider “QVQHVESGAGLVQAGGSLRLSCAASGSIFEINAMGWYRQAPGKERELVAAITGSGGSTHYADSVKVRFTISRDNAKNTVYLQMNSLKPEDTAVYYCAAVPRYQYGYWGQGNQVTVSS”, for which the “polyreactivity (PSR sort gate)” value is given as “low polyreactivity”.

With “QVQHVESGAGLVQAGGSLRLTCAASARTFKPYARGWYRQPPGKERELLAVISFSGGSTYYADSVKGRFTISRDNSKNTFYLQMNSLKPEDTAVYYCNAEGVTRQGGYDYWGQGTQVTVSS”, the “polyreactivity (PSR sort gate)” value is “high polyreactivity”.

As for “QVQHVESGARLVQAGGSLRLSCAASGSTFYRNTMGWYRQAPGTERELVAAISSGGSTNYADSVTGRFTISRDNAKNTVYLQMNSLKPEDTGVYYCAAAIRVISDGWYYYWYDYWGQGTPVTVSS”, the “polyreactivity (PSR sort gate)” value is listed as “high polyreactivity”.

Regarding “QVQHVESGGGIVQAGGSLRLSCAASGRIFDSNAMGWYRQAPGKERELVAAITTSGGSTFYADSVKGRFTISRDNAKNTVYLQMNSLKPEDTAVYYCAAGYSYYYHAIFPFDYWGQGTQVTVSS”, the “polyreactivity (PSR sort gate)” value is recorded as “high polyreactivity”.

For the sequence “QVQHVESGGGIVQAGGSLRLSCAASGSTFIYNAMGWYRQAPGKERELVAAIDWSGGDTYYADSVKGRFTISRDNAKNTVYLQMNCLKPEDTAVYYCATRWPHYGGYYYWGQGTQVTVSS”, the “polyreactivity (PSR sort gate)” value is “high polyreactivity”.

As for “QVQHVESGGGIVQAGGSLRLSCAASGSTFRWYAMGWYRQARGQERELVAAFTAGGRTYYADSVKGRFTISRDNAKNTVYLQMNSLKPEDTAVYYCNALGKVWRGGKFGYWGQGTQVTVSS”, the “polyreactivity (PSR sort gate)” value is on record as “high polyreactivity”.

Turning to “QVQHVESGGGLGQAGGSLRLSCAASGGTFQTNAKGCYRQAPGKERELVAGIRWRGGSTYYADSVKGRFTISRDNAKNTVYLQMKSLKPEDTAVYYCAAYYWQGTYDSRRTGWRLMNYWGQGTQVTVSS”, the “polyreactivity (PSR sort gate)” value is on record as “high polyreactivity”.

The values above are taken from the nanobody polyreactivity screen of Harvey et al. (2022).
